Laboratory results as given in the RNAGym collection of RNA variant scans (doi:10.7554/elife.80360).

B1: HDV Ribozyme (parent)
chain: GGCCGGCAUGGUCCCAGCCUCCUCGCUGGCGCCGGCUGGGCAACAUUCCGAGGGGACCGUCCCCUCGGUAAUGGCGAAUGGGACCCA

Variants of: B1
Assay: self-cleavage, relative activity (ratio to wild type); higher = more cleavage; co-transcriptional

Variant | self-cleavage
A83U C84A | 0.813
C14G A45U | 0.237
G67A C84A | 0.831
C33U U46A | 0.434
G17A G50A | 0.76
U12A G54C | 0.269
G53U C61G | 0.899
C24G C48G | 0.0941
A16G C57G | 1.2
G29A G34C | 0.148
C41G C57G | 0.804
C24A G39U | 0.211
G40U A87U | 0.667
C14U G55C | 1.05
C41U C62U | 0.92
A45U G55U | 0.698
A42C C57A | 0.373
C21A C48A | 0.157
G25A G31C | 0.0739
C66G G82C | 0.0959
A8G G25U | 0.35
U23A A87U | 0.99
U23A A87G | 0.816
C19G G76A | 0.0545

Variant | self-cleavage
C19U G53U | 0.215
C7U C32A | 0.0707
U20A C24U | 0.162
G39A U46G | 0.0923
U12G G55A | 0.703
G38A A45G | 0.155
C14G A51G | 0.475
G54C G73C | 0.502
C14G C61G | 0.782
U65A C86G | 1.12
G25A G38C | 0.0791
A78C A83G | 0.179
G55A C84U | 0.741
C41A A83C | 0.312
C7A U65A | 0.356
C4G C15G | 0.308
C18A C48U | 0.0627
C19A G76U | 0.262
C19G C49U | 0.0326
G59A C63U | 1.13
C30G C84U | 0.0268
C33U G50C | 0.786
C15G G29A | 0.0339
U47C G50A | 0.749

Variant | self-cleavage
C41U G54A | 0.958
C30G A83U | 0.16
C4A G11U | 0
U12G C63U | 0.755
G11U G34U | 0.0252
C33G G52U | 0.119
G6A A45G | 0.425
C36G A83G | 0.151
G34A C62G | 0.13
C13G U69A | 0.0437
U23C A70U | 0.917
G28A U37G | 0
G38U G55C | 0.19
C4G G39C | 0.0326
C21G U27A | 0
G1A C3G | 0.227
U27G A51U | 0.677
C13G G17C | 0.138
G17A C22U | 0.194
G59U A83G | 0.732
C48A A71U | 0.867
C18U G67A | 0.468
U12G G68A | 0.529
C4U A83C | 0.111

Variant | self-cleavage
G2U C4A | 0
G29U C84A | 0.117
C18U C63U | 0.733
A8U U47G | 0.831
C48A G82C | 0.35
C64G C66G | 0.742
C18G C26U | 0.388
C63A A77G | 0.734
G2U U72C | 0.0191
U12C C63A | 0.268
C57G A71C | 0.852
A71C G76A | 0.935
G31U A42C | 0.131
C44A G55U | 0.698
G31U C32A | 0.111
G53U G80C | 0.304
G29C C44G | 0
G38A C44A | 0.0678
C21G G28U | 0.0287
G31C G54C | 0.193
G55A U72C | 1
C13A G53U | 0.138
G5C U79G | 0
U47A U72G | 0.665

Variant | self-cleavage
C4G U72C | 0.0426
C30A C48A | 0.635
G2U G35U | 0.0318
A43U C84U | 0.151
C26U G35A | 0.876
C75U G81U | 0.193
A16G C49A | 1.08
C64U G80A | 0.397
A42U A43G | 0.201
C4A G74C | 0.0997
U9A U12C | 0.289
C19A C62U | 0.111
G54A C57G | 0.903
U20A C49A | 0
C15A A45C | 0.151
G52A G74U | 0.561
G68U A83U | 0.629
G67C C86U | 0.979
G38U C61A | 0.248
U65A G82U | 0.217
G74U U79A | 0.268
C26A C41U | 1.17
G53U U60A | 0.997
A71C G82C | 0.268

Variant | self-cleavage
C21A A87G | 0.0496
G34U C57G | 0.178
U27C G81A | 0.374
G25C A43U | 0.147
U12C G25C | 0.0923
G5C G74A | 0.0898
C33G G54C | 0.143
G10C A83G | 0.578
C18G U47A | 0
U69A G81A | 0.425
C21U C62G | 0.244
U46G A56G | 0.499
C15G U27C | 0.277
A51U C85U | 0.916
G53C A77G | 0.88
U69G A70G | 0.767
C36A C62G | 0.17
G1A A77C | 0.0405
G35C C41G | 0.161
G17C C48U | 0.175
A45U G53C | 0.778
G67U C75A | 0.0426
C15U G80C | 0.177
U27G U37G | 0.391

Variant | self-cleavage
A42G A78G | 0
G40C A83C | 0.0755
G1A U9A | 0.138
C41U A70G | 0.876
C15A G82U | 0.232
G5A A78C | 0.106
G29U C66U | 0.147
G40A G74A | 0.726
C3A G28U | 0.0536
G39U C75G | 0.0978
C18U G34A | 0.117
G25C G38U | 0.0791
U20G G29C | 0
A56C G80U | 0.253
G55C C58A | 1.15
U27C G50A | 0.733
G74U | 0.569
C21A U27C | 0.0519
G74A A87U | 0.628
U60C G81U | 0.424
C13U A42C | 0.0831
G31U G38U | 0.0944
C14U G82A | 0.323
U37G C48U | 0

Variant | self-cleavage
C32A C36U | 0.0733
C14A C58A | 1.17
U69G C86A | 0.917
A43C G68U | 0.264
U47C U65A | 0.923
G10C C64G | 0.997
C4A A16G | 0.344
U46A U60C | 0.752
C63A G82C | 0.122
C33A G40U | 0.23
G2C C30U | 0.117
U12A C30U | 0.0739
G10U G40C | 0.313
U46G U79C | 0.0519
G52C U60G | 0.944
U27C C64G | 0.652
G81U A83U | 0.126
G5U G50A | 0.196
G54C A87C | 1.02
C22G G76A | 0.0354
U12C U27G | 0.312
A8G A78G | 0.128
G11C G52C | 0.266
C15U A78G | 0.332

Variant | self-cleavage
C18U A51C | 0.901
C18A G53U | 0.117
G2C A71U | 0.11
G11A A83G | 0.0831
U9A G59U | 1.41
G1C C36U | 0.394
U47G C58U | 0.942
G38C C49A | 0.237
C7G G52C | 0.229
C21U G76U | 0.542
U20C C36G | 0.111
G59C C66U | 0.81
G80U C84G | 0.332
A51C C64G | 1.09
A51C C64U | 0.9
U12C G68A | 0.231
G53A C84U | 0.777
G35C A71G | 0.262
C3A G31A | 0.0507
G17U C21A | 0.0339
C62U G73A | 0.808
A8G C44G | 0.499
U12G G52A | 1.05
U12A U37C | 0.277

Variant | self-cleavage
U20G G35A | 0.107
C32U G74C | 0.224
C22G U60C | 0.0332
G52A A71C | 0.744
U27G A77G | 0.723
G10U A45C | 0.175
C48U G68U | 0.893
C19A C84A | 0.0519
G52U A83G | 0.81
G54A A70U | 0.843
C64G A87U | 0.786
G10A C44G | 0.415
C18A G35A | 0.199
G6C C61A | 0.161
G31U U47G | 0.32
C33U C75G | 0.222
U12A A83C | 0.35
A16G C30G | 0.122
C32U U47C | 0.764
C58A U60A | 1.09
G29U G74A | 0.0978
G29A G53C | 0.134
A8C G31U | 0.214
U12A C14A | 0.0504

Variant | self-cleavage
G25U C86A | 0.102
G50U G52C | 0.803
C32U A43G | 0.63
A16G A83G | 0.755
C64A A77U | 0.449
U9A A56G | 0.95
A16G C85A | 1.32
C44U U60C | 0.872
C48U A71G | 1.03
A16U G38A | 0.113
G35U G55C | 0.409
C14U C21G | 0.125
G17U C86U | 0.612
G25C C84U | 0.0314
C3A C63A | 0.492
C21A G74C | 0.126
A16U A56U | 1.15
C57U C66A | 0.878
C4A G31C | 0.0739
G17U U72C | 0.142
G17A G29U | 0.0767
C44U U47A | 0.743
U27G | 0.848
G28A C30A | 0.149

Variant | self-cleavage
A71G G76A | 1
G35U G74U | 0.182
A16C A51U | 0.935
G6C U60G | 0.312
C18G C63A | 0.145
G68C G74U | 0.394
C44A A70G | 0.703
U9A G25C | 0.0615
C3U U60A | 0.769
G31U G59C | 0.57
U27A C85U | 0.684
C3A G59C | 0.668
G50C G82C | 0.383
A16U C41G | 0.401
C7A A43U | 0.0386
C14U A77U | 0.573
U9C C62U | 0.869
U12A C86G | 0.32
U27A G67U | 0.799
C58A G68A | 0.95
C4G G68C | 0.475
C4G G68U | 0.227
A43U U69C | 0.494
C66G C85A | 1.02

Variant | self-cleavage
G1C C7G | 0.0875
G38U A78C | 0.086
C30U C58A | 0.697
C62U C86U | 0.845
C66U C86U | 1.15
C36U G39A | 0
U72A U79G | 0.361
C22U G74U | 0.0683
G40C A78U | 0.122
G17C U27G | 0.499
C18U C21U | 0.0911
C41A G81C | 0.169
G1C G31U | 0.0791
G5C G11C | 0.196
C49G G50U | 0.47
G74U A77U | 0.346
G1C C75A | 0
G35U G52C | 0.366
A43U U79A | 0.122
G6C G31C | 0.399
C36A G54U | 0.229
U46G G53A | 0.527
C66A A78C | 0.142
G29U U47G | 0

Variant | self-cleavage
C58G U72A | 0.594
G31A C32U | 0.315
A71U A77C | 0.287
C21G C63A | 0.106
G68A U69C | 0.782
G40U A56U | 0.801
G11C G80U | 0.0621
G35A G81A | 0.277
G53C A71C | 0.356
G5C A77U | 0
G25U U60C | 0.0475
G5C A8G | 0
G39C C44U | 0.0707
G55C C61A | 1.06
G10A U60C | 0.787
C64A G76U | 0.858
C26U A70G | 0.831
A45C G68U | 0.604
G2C A43G | 0
G54C A78U | 0.324
G17A G28C | 0.0489
C49G G73U | 0.322
